# Assay results taken from patent US20220403363A1.
# Legend:
# [1] = system: xtpS_A3T3C/E4A4T4TE without SYNZIP (protein encoded by plasmid pJW64)
# [2] = system: T1, SYNZIP18-xtpS_A3T3C/E4A4T4TE (protein encoded by plasmid pJW62)
# T1 sequence: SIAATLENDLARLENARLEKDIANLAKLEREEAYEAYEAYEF
# [3] = system: SYNZIP18-gxpS_A3T3C/E4A4T4TE (protein encoded by plasmid pJW76)
# [4] = system: gxpS_A3T3C/E4A4T4TE without SYNZIP (protein encoded by plasmid pJW83)
# [5] = system: GlbD second part (from the T domain) without SZ
# [6] = system: GlbD second part (from the T domain) with SZ18
# [7] = system: T2, SYNZIP18-xtpS_T2C3A3T3C/E4A4T4TE (protein encoded by plasmid pNA5)
# T2 sequence: T1 sequence
# [8] = system: xtpS_T2-TE without SYNZIP (protein encoded by plasmid pNA12)
# [9] = target: gxpS_A3T3C/E4A4T4TE without SYNZIP (protein encoded by plasmid pJW83); test: cell-based or functional assay
substance,measurement,setting,value
xtpS_A1T1C/E2A2T2C3 without SYNZIP (protein encoded by plasmid pJW63),peptide production by NRPS-16d (no SZs) (HPLC-MS),[1],showed no peptide production for control experiments NRPS-16b and NRPS-16d
same,decrease in production of cyclic peptide 2 by NRPS-16c in relation to NRPS-16a (both SZs),[2],control NRPS-16c shows a decrease in the production of cyclic peptide 2 by 80%
same,"production of peptide 2 by NRPS-16c (no C-terminal SZ), % of WT level (HPLC-MS)",[2],NRPS-16c showed only a very low production of 2 with 3.2% of the WT level
xtpS_A1T1C/E2A2T2C3-SYNZIP19 (protein encoded by plasmid pNA1),peptide production by NRPS-16b (no N-terminal SZ) (HPLC-MS),[1],showed no peptide production for control experiments NRPS-16b and NRPS-16d
same,"production of cyclic peptide 2 by NRPS-16 (C-A split, SZ19/18) relative to WT XtpS (HPLC-MS)",[2],13% (NRPS-16)
same,production of linear peptide 1 by NRPS-16 (HPLC-MS),[2],NRPS-16 showed no production of 1
szeS_C1A1T1C/E2A2T2C3-SYNZIP17 (protein encoded by plasmid pJW92),"peptide production by NRPS-4a in E. coli (HPLC-MS), peptides 10 and 11",[3],Both the mass of 10 and the mass of 11 could be detected in the extracted ion chromatogram (EIC)
xtpS_A1T1C/E2A2T2C3-GS(8)-SYNZIP17 (protein encoded by plasmid pNA9),"increase in productivity for cyclic peptide 2 against the construct without linker (average over NRPS-15b, -15c, -15d)",[2],an average increase in productivity of ˜37% for cyclic 2 and ˜26% for linear peptide 1
same,"increase in productivity for linear peptide 1 against the construct without linker (average over NRPS-15b, -15c, -15d)",[2],an average increase in productivity of ˜37% for cyclic 2 and ˜26% for linear peptide 1
same,production of cyclic product 2 by NRPS-15c (8 AS GS linker) (HPLC-MS),[2],the cyclic product 2 with almost WT level was produced for all constructions with GS linker
xtpS_A1T1C/E2A2T2C3-GS(10)-SYNZIP17 (protein encoded by plasmid pNA8),"increase in productivity for cyclic peptide 2 against the construct without linker (average over NRPS-15b, -15c, -15d)",[2],an average increase in productivity of ˜37% for cyclic 2 and ˜26% for linear peptide 1
same,"increase in productivity for linear peptide 1 against the construct without linker (average over NRPS-15b, -15c, -15d)",[2],an average increase in productivity of ˜37% for cyclic 2 and ˜26% for linear peptide 1
same,production of cyclic product 2 by NRPS-15b (10 AS GS linker) (HPLC-MS),[2],the cyclic product 2 with almost WT level was produced for all constructions with GS linker
xldS_C1A1T1C/E2A2T2C3-SYNZIP17 (protein encoded by plasmid pJW93),peptide production by NRPS-5b (negative control without SZ18) against NRPS-5a (HPLC-MS),[4],the negative control (NRPS-5b) showed no significant difference in peptide production from the NRPS-5a construct
same,peptide production by NRPS-5a in E. coli (HPLC-MS),[3],showed the production of most expected derivatives
xtpS_A1T1C/E2A2T2C3-GS(4)-SYNZIP17 (protein encoded by plasmid pNA10),"increase in productivity for cyclic peptide 2 against the construct without linker (average over NRPS-15b, -15c, -15d)",[2],an average increase in productivity of ˜37% for cyclic 2 and ˜26% for linear peptide 1
same,"increase in productivity for linear peptide 1 against the construct without linker (average over NRPS-15b, -15c, -15d)",[2],an average increase in productivity of ˜37% for cyclic 2 and ˜26% for linear peptide 1
same,production of cyclic product 2 by NRPS-15d (4 AS GS linker) (HPLC-MS),[2],the cyclic product 2 with almost WT level was produced for all constructions with GS linker
GlbD first part (up to the A domain) without SZ,"glidobactin A production, negative control without both SZs",[5],"In the negative controls without in each case one or both SZs, there is virtually no glidobactin A production"
same,"glidobactin A production, negative control without one SZ",[6],"In the negative controls without in each case one or both SZs, there is virtually no glidobactin A production"
xtpS_A1T1C/E2A2 without SYNZIP (protein encoded by plasmid pNA11),decrease in productivity of NRPS-14c compared to NRPS-14a (told of the controls overall),[7],"Overall, the controls showed a decrease in productivity of 90% compared to NRPS-14a"
same,"production of peptides 2 and 1 by NRPS-14c (no C-terminal SZ), % of WT level (HPLC-MS)",[7],showed a very low production of the cyclic product 2 and absolutely no production of the linear peptide 1 at ˜3-10% of the WT level
same,decrease in productivity of NRPS-14d compared to NRPS-14a (told of the controls overall),[8],"Overall, the controls showed a decrease in productivity of 90% compared to NRPS-14a"
same,"production of peptides 2 and 1 by NRPS-14d (no SZs), % of WT level (HPLC-MS)",[8],showed a very low production of the cyclic product 2 and absolutely no production of the linear peptide 1 at ˜3-10% of the WT level
szeS_C1A1T1C/E2A2T2C3-SYNZIP17 (protein encoded by plasmid pJW92) (enzyme),decrease of peptides 10 and 11 in NRPS-4b (no N-terminal SZ) against NRPS-4a (HPLC-MS),[9],80 % decrease
GlbD first part (up to the A domain) with SZ17,"glidobactin A production, negative control without one SZ",[5],"In the negative controls without in each case one or both SZs, there is virtually no glidobactin A production"
same,glidobactin A production by the PKS/NRPS hybrid with divided GlbD,[6],leads to a complete synthesis of the glidobactin peptide
ambS_A1T1C/E2A2T2C3-SYNZIP17 (protein encoded by plasmid pJW91),production of peptide 9 by NRPS-3b (no N-terminal SZ) relative to NRPS-3a (HPLC-MS),[4],peptide 9 to ˜18%
same,production of peptides 7 and 8 by NRPS-3b (no N-terminal SZ) relative to NRPS-3a (HPLC-MS),[4],7 and 8 were only produced to ˜50%
same,"peptide production by NRPS-3a in E. coli (HPLC-MS), peptides 7, 8 and 9",[3],"The peptides 7, 8 and 9, which eluted at a retention time of 6 min, 7.1 min and 7 min, could be identified on the basis of their mass"
